{
  "source": "paper PMC5014334",
  "molecular_target": "glutathione-S-transferase (GST)-CDK1 fusion protein (not stated (amplified from RNA of Vero cells; African green monkey from memory))",
  "data": [
    {"substance": "TrxA-His-p17 fusion protein (natural protein)", "values": [
      {"measurement": "in vitro kinase assay: vimentin-Ser 56 phosphorylation of GST-vimentin (2 μM) by GST-CDK1 (10 nM) and GST-cyclin B1 (10 nM) with increasing TrxA-His-p17; Ki of p17", "value": 100, "unit": "nM"}
    ]}
  ]
}
